Data: US20260231954A1, “PESTICIDAL ENZYMES FOR USE ON NEMATODES, INSECTS, AND MOLLUSKS” (priority 2023, published 2026)

What was measured:
[1] = test system: Fall armyworm (Spodoptera frugiperda); test: Diet-surface overlay (DSO) bioassay on Fall armyworm; assay type: in vivo; conditions: number of individuals, n = 32, 7 days
Method: (§1) Diet-surface overlay bioassays are conducted with artificial diet mixes without antibiotics in 1.5 cm^2 cell bioassay trays(s). Artificial diets are commercially available from Southland Products Inc. Diets were prepared by dispersing 0.5 mL of molten diet to each 1.5 cm^2 cell. After solidification, 0.1 mL enzyme treatments were dispersed on top of diet in each cell and the tray was gently rocked in an orbital shaker to spread the liquid uniformly over the diet surface. Trays were placed under clean airflow until the surface of each cell was uniformly dried. One or two 16-cell sections were used per treatment (the number in larvae treated was 16 or 32).
(§2) One healthy first instar larva was placed into each treatment cell, each 16-cell section was covered with a re-sealable lid and incubated at 27° C. and light-dark period of 16:8 hrs. After 7 days, and according to the species, the number of individuals in the following developmental categories was recorded.
(§3) Negative/untreated controls were treated with filtered water and positive controls were treated with lethal doses of Bacillus thuringiensis subsp. Kurstaki (Btk) spores at 1000 ppm.

[2] = test system: Garden snails (Cornu aspersum); test: Antifeedant and molluscicide bioassay on garden snails (diet consumption, survival, weight gain); assay type: in vivo
Method: Two-week old garden snails (Cornu aspersum) and full-size black gloss snails (Zonitoides nitidus) were maintained in a semi-darkened tank at 68-70° F. at high humidity, provided with a wet sponge in a petri dish. Snails were transferred to fresh tank every 2-3 days, and they were feed ad libitum with cucumber slices supplemented with calcium carbonate tablets. Individuals were reared in the laboratory for at least a week to fully acclimate to laboratory conditions prior to testing. The individuals ranged between 3 weeks to 2 months old at the time of bioassay.
Filter-sterilized recombinant enzymes including proteases and lipases were prepared as indicated in Example 25. Corresponding controls (e.g., buffer, fermentation of non-recombinant strain, water) were be prepared accordingly. Enzymes were dried by mixing them with Polyvinylpyrrolidone K30 (Thermo Sci Chem, Cat #227545000) at a ratio of 60 mg PVP per mL of enzymes, dispersed on a petri dish and allowed to dry in a bio-safety hood for 24-48 hours.
The treatments were prepared by mixing 0.4 g of dry enzyme and 1 gram of artificial diet mix. The artificial diet mix consisted of flour supplemented with 30 mg sucrose per gram of flour. […]
12 snails were randomly assigned to each treatment, labeled with permanent marker on the top of the shell for identification, and their weight (mg) was recorded before treatment. […] At the time of treatment replacement, treatment consumption, weight, and mortality were recorded.
Acid protease, alkaline protease, aminopeptidase, neutral protease, and keratinase, were prepared as indicated above and their antifeedant and molluscicidal effects were tested. […] The units (U) of enzyme activity was determined as the amount of enzyme required to breakdown 1 μM of substrate per minute. […]
Lipases from Burkholderia cepacia, Pseudomonas fluorescens, porcine pancreas, type II (PPII) were prepared as described above and their antifeedant and molluscicidal effects were tested. […] The units (U) of enzyme activity was determined as the amount of enzyme required to breakdown 1 μM of substrate per minute. […]

[3] = test system: Diamondback moth (Plutella xylostella); test: Diet-surface overlay (DSO) bioassay on Diamondback moth; assay type: in vivo; conditions: 7 days
Method: as §1, §2
(§4) Diamondback moth (Plutella xylostella): Dead Larva (lack of movement), Larva Stage I (≤50% relative size), Larva Stage II (100% relative size, full size), Early Pupa (light green color), Late Pupa (light-dark brown color), and Adult.
as §3

[4] = test system: Btk resistant Diamondback moth; test: Diet-surface overlay (DSO) bioassay on Btk resistant Diamondback moth; assay type: in vivo, Plutella xylostella; conditions: 7 days
Method: as §1, §2, §4, §3
However, both neutral proteases reduced the number of individuals reaching adult stage.
The effect of lipase (10× enzyme rate) and free lipases were tested on a Diamondback Moth Btk resistant strain. Free Lipases from Burkholderia cepacia (Bc) and Pseudomonas fluorescens (Pf) were tested along with Lipase (SEQ ID NO: 76) and the results are shown below in Table 45.

[5] = test system: SCN juveniles (SCN HG type 1.2.5.7, race 2); test: In-vitro plate assay of SCN juvenile viability (difference in percent death); assay type: in vivo; conditions: Table 32, 40 μL per well of each treatment, water only 4%
Method: (§5) SCN eggs were obtained from SCN HG type 1.2.5.7, race 2. Eggs were rinsed 4 times with sterile water. Eggs were transferred to a 6-well plate and resuspended in 5 mL of 3 mM ZnSO4. The plate was sealed with parafilm, covered with aluminum foil to prevent light from entering the plate, and placed in a plate growth chamber at 25° C. and 80% relative humidity. After 6-7 days of incubation, an estimate of hatched SCN juveniles was obtained from the well to determine the overall number of juveniles per 10 μL. The concentration of the hatchery solution was adjusted until it consisted of 20-30 juveniles per 10 μL.
Potato dextrose agar media containing chloramphenicol and chlortetracycline was prepared and added to sterile twenty-four-well cell culture plates (1 mL per well). The plates were divided according to the pre-determined N-value for each treatment (N=12-24). Each treatment being tested was added to the agar surface within each well at a rate of 40 μL per well. Without allowing the treatments to dry, 10 μL of the prepared nematode mixture was added to the agar surface within each well.
To quantify the treatments' effects on nematode viability, the nematodes were examined under a dissecting microscope at 20× magnification. Initial (TO) values for the number of live juveniles, number of dead juveniles and total number of juveniles were recorded immediately after preparation of each well. The plates were then wrapped in parafilm around the open edge, encased in aluminum foil, and placed in secondary containment. The secondary containment was placed in a plant growth chamber at 25° C. and 80% relative humidity. At approximately 24 hours post addition of juveniles, the plates were evaluated, and the number of live juveniles, dead juveniles and total number of juveniles were recorded (T24).
The difference in percent death at T0 vs T24 was calculated by subtracting the percent dead at TO [(#dead juveniles/total #juveniles)×100] from the percent dead at T24 [(#dead juveniles/#total juveniles originally present)×100]. […] If the ANOVA indicated a significant difference existed among treatments, Tukey's HSD post hoc test was used to perform a pairwise contrast between each set of treatments. Different letters denote statistically significant results at P<0.05.
as §5, with “from” for “from SCN”, “rinsed four” for “rinsed 4”, “and 80-90%” for “and 80%”, “from each” for “from the”
Potato dextrose agar media containing chloramphenicol and chlortetracycline was prepared and added to sterile twenty-four-well cell culture plates (1 mL per well). The plates were divided according to the pre-determined N-value for each treatment (N=24). […]
To quantify the treatments' effects on nematode viability, the nematodes were examined under a dissecting microscope at 20× magnification. Initial (TO) values for the number of live juveniles, number of dead juveniles and total number of juveniles were recorded. […]

[6] = test system: soybean cyst nematode (SCN, Heterodera glycines); test: Soybean cyst nematode reproduction on soybean after seed treatment, controlled environment (cysts per gram of root tissue or per plant); assay type: in vivo; conditions: Table 16
[7] = Table 44, number of individuals, n = 16
[8] = Table 45, number of individuals, n = 32

B1: PpII Lipase: free lipase from porcine pancreas Type II (PpII) (protein, UniProt P00591 1-450, looked up)
Pancreatic triacylglycerol …: SEVCFPRLGCFSDDAPWAGIVQRPLKILPWSPKDVDTRFLLYTNQNQNNYQELVADPSTITNSNFRMDRKTRFIIHGFIDKGEEDWLSNICKNLFKVESVNCICVDWKGGSRTGYTQASQNIRIVGAEVAYFVEVLKSSLGYSPSNVHVIGHSLGSHAAGEAGRRTNGTIERITGLDPAEPCFQGTPELVRLDPSDAKFVDVIHTDAAPIIPNLGFGMSQTVGHLDFFPNGGKQMPGCQKNILSQIVDIDGIWEGTRDFVACNHLRSYKYYADSILNPDGFAGFPCDSYNVFTANKCFPCPSEGCPQMGHYADRFPGKTNGVSQVFYLNTGDASNFARWRYKVSVTLSGKKVTGHILVSLFGNEGNSRQYEIYKGTLQPDNTHSDEFDSDVEVGDLQKVKFIWYNNNVINPTLPRVGASKITVERNDGKVYDFCSQETVREEVLLTLNPC
Dead Larva ([1]; Table 46, lipases): 0 | Larva Stage I ([1]; Table 46): 2 | Larva Stage II ([1]; Table 46): 5 | Larva Stage III ([1]; Table 46): 15 | Larva Stage IV ([1]; Table 46): 10 | Diet consumption ([2]; lipases, garden snail, n = 12, 12 days, dose per treatment in U/gr diet): 0.82 gr | Dead Snails ([2]; lipases, garden snail, number of n = 12, 12 days): 0 | food consumption (in words) ([2]; text to Table 62, lipases in artificial diet, n = 12, 12 days): consistent reduction in food consumption

B2: Lipase (SEQ ID NO: 76): Recombinant lipase from Bacillus thuringiensis; Bacillus thuringiensis Lipase (Lip1) (protein, listed as Bacillus thuringiensis)
chain: MRLMRRCVALLIVFFIMAPMISTNVRAGVVKELKTGFPDQEVFTPGEWFLGQKPANYDENKPPILFVQGRNGNADSWYGKTVYHDINDMYDYALKAGYQTVFIQLYDAAGKGSASQWDNGKLLAQKLEEIYNHFGKKVNIVAHSKGGIDTQAALVGYGANRFVGNVITLATPHHGSNLADLSYSWWAGWLASILGQKDDGTYSLQMGEMAKFRSTIDNNPAAKLNRYYTVTGTSWGPVFSALSMGGLYLSSYGSNDGLVNECSAKLPYGTHLFTDSRFDHDNIRKGSAVFARIEPYLRTANVPVPALVASSTSSNENIEQLNTTSNQSILGGELPQNQWIEQTVAVDKKAEGIVSILTASSDVEVQMISPKGKVYTNKDSVITTGEGESFFGGATIRTFKFDKMDVGEWKVKMMTKQSKDAYLVVSDYKTGAPFVLQMPTKVKANKSEYKLKKSPVAPEMKGDLSITVRVVNKEGKLVSEFNELQNVNNNTFTGALKNIKQPGVYNVTMDIKGMNKEGKSYSRTIVKSVYVEK
modifications: Lipase (Lip1 H192)
Effect on survival and development of Diamondback moth (in words) ([3]; DSO bioassay): delayed larva-pupa development | Dead Larva ([3]; Table 44, lipases, number of individuals, n = 16): 0 | Adult [3, 7]: 0 | Early Pupa [3, 7]: 3 | Larva Stage I [3, 7]: 0 | Larva Stage II [3, 7]: 0 | Late Pupa [3, 7]: 13 | Effect on survival and development of Btk resistant Diamondback moth (in words) ([4]; DSO bioassay): clear delay of larva-pupa development | Dead Larva ([4]; Table 45, lipases, number of individuals, n = 32, Btk resistant strain per text): 1 | Adult [4, 8]: 0 | Early Pupa [4, 8]: 10 | Larva Stage I [4, 8]: 9 | Larva Stage II [4, 8]: 12 | Late Pupa [4, 8]: 0

B3: Pseudomonas sp. esterase (SEQ ID NO: 248): Pseudomonas sp. Esterase (protein, listed as Pseudomonas sp.)
chain: MTEPLILQPVKPADACVIWLHGLGADRYDFLPVAEALQEILLSTRFVLPQAPTRPVTINGGYAMPSWYDIKAMSPARAIDRDELEASADRIIELIEEQRSSGIDASRIFLAGFSQGGAVVYHTAFLKWQGPLGGVLALSTYAPTFSDELELSASQQRIPVLSLHGQFDNVVQNSMGRTAYEYLKAHGVTVTWQEYPMEHEVLPEEIRDIGTWLSERLR
Difference in Percent Death of Nematodes for 0 to 24 Hours [5]: 22% | Difference in Percent Death of Nematodes for 0 to 24 Hours ([5]; listed as Pseudomonas sp. esterase free enzyme (SEQ ID NO: 248)): 22% | % Comparison to Control (figure in parentheses) ([6]; change vs base control): −10% | Average cysts per g of root tissue ([6]; free enzyme or 4x concentrate seed treatment, soybean 2830E3): 220.2 cysts per g of root tissue
